Like-named read-outs stand apart in the source and are kept apart here. Where no end group is shown, it is not given here.
Key:
[1] = target: T1, TAK1 expressed from yeast 2-hybrid expression vector pBTMHu11F (Homo sapiens (Human), UniProt O43318 1-606); test: cell-based or functional assay
T1 sequence: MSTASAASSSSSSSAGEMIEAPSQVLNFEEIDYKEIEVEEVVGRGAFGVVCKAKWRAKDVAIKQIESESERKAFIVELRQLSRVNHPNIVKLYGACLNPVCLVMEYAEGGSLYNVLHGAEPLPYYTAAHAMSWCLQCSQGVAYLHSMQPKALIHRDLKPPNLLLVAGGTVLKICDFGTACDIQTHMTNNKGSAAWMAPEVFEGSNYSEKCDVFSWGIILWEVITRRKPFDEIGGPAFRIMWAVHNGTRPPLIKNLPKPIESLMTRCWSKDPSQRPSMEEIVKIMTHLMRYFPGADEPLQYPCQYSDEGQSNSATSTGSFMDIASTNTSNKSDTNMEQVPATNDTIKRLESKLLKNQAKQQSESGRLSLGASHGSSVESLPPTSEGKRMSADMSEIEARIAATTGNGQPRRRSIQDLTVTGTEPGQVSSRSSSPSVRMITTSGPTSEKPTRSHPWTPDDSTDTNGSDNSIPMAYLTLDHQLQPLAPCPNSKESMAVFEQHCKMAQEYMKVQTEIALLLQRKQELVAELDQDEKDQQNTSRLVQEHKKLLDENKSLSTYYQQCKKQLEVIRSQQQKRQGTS

[2] = target: T2, recombinant human TAK1-6×His polypeptide (human, UniProt O43318 1-606); test: competition ELISA on plate-immobilised TAK1-6×His; the blocked ligand is MBP-TAB1C-FLAG at a fixed amount
T2 construct: also called human TAK1-6xHis; recombinant TAK1 polypeptide
T2 sequence: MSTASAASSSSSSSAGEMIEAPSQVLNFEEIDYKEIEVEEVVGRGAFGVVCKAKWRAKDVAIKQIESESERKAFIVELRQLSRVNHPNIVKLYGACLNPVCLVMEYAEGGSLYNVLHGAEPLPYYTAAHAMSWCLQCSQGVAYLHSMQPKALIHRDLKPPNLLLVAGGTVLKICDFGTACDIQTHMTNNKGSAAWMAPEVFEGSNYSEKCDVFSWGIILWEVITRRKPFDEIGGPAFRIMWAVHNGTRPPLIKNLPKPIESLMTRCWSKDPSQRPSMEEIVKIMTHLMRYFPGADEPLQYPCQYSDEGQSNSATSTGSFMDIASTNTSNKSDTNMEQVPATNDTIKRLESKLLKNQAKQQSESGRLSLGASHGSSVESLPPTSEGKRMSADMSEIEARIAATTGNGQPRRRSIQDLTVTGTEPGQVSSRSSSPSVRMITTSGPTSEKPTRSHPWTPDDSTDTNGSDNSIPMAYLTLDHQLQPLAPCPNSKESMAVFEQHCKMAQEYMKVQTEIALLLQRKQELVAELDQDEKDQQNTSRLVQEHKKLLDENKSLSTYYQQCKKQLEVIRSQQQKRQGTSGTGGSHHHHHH
From the text: In a similar manner to that in the above 5-1 (2), the recombinant human TAK1-6×His polypeptide was immobilized and was blocked.

[3] = target: T1, TAK1 expressed from yeast 2-hybrid …; test: cell-based or functional assay; remark: listed apart in the source
[4] = target: T1, TAK1 expressed from yeast 2-hybrid …; test: cell-based or functional assay; remark: listed apart in the source
[5] = target: T3, TAB1 polypeptide of human fibroblast-derived HT-1080 cells (endogenous) (human, UniProt Q15750 1-504, limits assumed); test: cell-based or functional assay
T3 sequence (looked up): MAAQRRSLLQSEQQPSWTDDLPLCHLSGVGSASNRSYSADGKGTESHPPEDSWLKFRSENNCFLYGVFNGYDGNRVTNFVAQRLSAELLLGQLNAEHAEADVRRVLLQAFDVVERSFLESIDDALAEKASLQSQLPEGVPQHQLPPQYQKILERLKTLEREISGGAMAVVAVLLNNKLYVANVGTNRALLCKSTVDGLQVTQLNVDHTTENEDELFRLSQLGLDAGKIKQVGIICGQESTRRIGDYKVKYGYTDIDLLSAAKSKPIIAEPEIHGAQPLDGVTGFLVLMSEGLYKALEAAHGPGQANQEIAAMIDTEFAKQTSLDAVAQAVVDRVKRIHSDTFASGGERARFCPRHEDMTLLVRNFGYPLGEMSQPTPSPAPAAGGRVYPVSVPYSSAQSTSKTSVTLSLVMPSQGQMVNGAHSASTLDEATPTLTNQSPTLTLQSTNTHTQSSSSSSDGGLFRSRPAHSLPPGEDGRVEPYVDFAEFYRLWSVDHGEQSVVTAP

[6] = target: T4, TAB1 polypeptide of mouse kidney mesangial cell line SV40MES13 (endogenous) (mouse, UniProt Q8CF89 1-502, limits assumed); test: cell-based or functional assay
T4 sequence (looked up): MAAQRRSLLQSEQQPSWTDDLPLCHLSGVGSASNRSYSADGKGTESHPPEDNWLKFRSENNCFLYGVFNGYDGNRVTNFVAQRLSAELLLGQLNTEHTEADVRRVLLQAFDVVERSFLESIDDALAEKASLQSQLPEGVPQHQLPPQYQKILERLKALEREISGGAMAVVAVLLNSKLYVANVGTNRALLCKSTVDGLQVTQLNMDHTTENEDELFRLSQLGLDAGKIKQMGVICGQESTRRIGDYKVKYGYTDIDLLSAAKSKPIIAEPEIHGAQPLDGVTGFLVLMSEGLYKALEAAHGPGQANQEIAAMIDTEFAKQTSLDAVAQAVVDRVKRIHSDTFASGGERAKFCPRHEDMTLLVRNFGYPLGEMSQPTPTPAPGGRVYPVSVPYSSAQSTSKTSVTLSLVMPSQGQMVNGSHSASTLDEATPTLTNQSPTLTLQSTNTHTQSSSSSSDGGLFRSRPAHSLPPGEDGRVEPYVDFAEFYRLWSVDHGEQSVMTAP

[7] = target: TAB1 polypeptide of mink pulmonary epithelial cell line Mv1Lu (endogenous) (mink); test: cell-based or functional assay

## PYVDFAEFYRLWSVDHGEQSVVTAP (other, not shown: large carriers, also: fusion with GAL4 transcription activation domain) [TAB1C25, fusion with the GAL4 transcription activated domain (pGAD-TAB1C25)]
[1]
  β-galactosidase activity of yeast L40 (yeast 2-hybrid), ratio based on TAB1C68: 0.28 ratio to TAB1C68

B1: recombinant human TAB1-FLAG polypeptide (other)
chain: MAAQRRSLLQSEQQPSWTDDLPLCHLSGVGSASNRSYSADGKGTESHPPEDSWLKFRSENNCFLYGVFNGYDGNRVTNFVAQRLSAELLLGQLNAEHAEADVRRVLLQAFDVVERSFLESIDDALAEKASLQSQLPEGVPQHQLPPQYQKILERLKTLEREISGGAMAVVAVLLNNKLYVANVGTNRALLCKSTVDGLQVTQLNVDHTTENEDELFRLSQLGLDAGKIKQVGIICGQESTRRIGDYKVKYGYTDIDLLSAAKSKPIIAEPEIHGAQPLDGVTGFLVLMSEGLYKALEAAHGPGQANQEIAAMIDTEFAKQTSLDAVAQAVVDRVKRIHSDTFASGGERARFCPRHEDMTLLVRNFGYPLGEMSQPTPSPAPAAGGRVYPVSVPYSSAQSTSKTSVTLSLVMPSQGQMVNGAHSASTLDEATPTLTNQSPTLTLQSTNTHTQSSSSSSDGGLFRSRPAHSLPPGEDGRVEPYVDFAEFYRLWSVDHGEQSVVTAPGTGGSDYKDDDDK
notes: Made in Sf9 cells with baculovirus and purified on anti-FLAG M2 gel
[2]
  IC50 (read off the curve): ~1 µg/well

## GLFRSRPAHSLPPGEDGRVEPYVDFAEFYRLWSVDHGEQSVVTAP (other, not shown: large carriers, also: fusion with GAL4 transcription activation domain) [TAB1C45, fusion with the GAL4 transcription activated domain (pGAD-TAB1C45)]
[3]
  ratio of the β-galactosidase activity to that of TAB1C68 (yeast 2-hybrid): 1.19
[4]
  ratio of the β-galactosidase activity to that of TAB1C68 (yeast 2-hybrid): 1.31

B2: TAB1C68, fusion with the GAL4 transcription activated domain (pGAD-TAB1) (other, not shown: large carriers)
chain: QSPTLTLQSTNTHTQSSSSSSDGGLFRSRPAHSLPPGEDGRVEPYVDFAEFYRLWSVDHGEQSVVTAP
[3]
  ratio of the β-galactosidase activity to that of TAB1C68 (yeast 2-hybrid): 1
[4]
  ratio of the β-galactosidase activity to that of TAB1C68 (yeast 2-hybrid): 1

B3: TAK1-DN (expressed from pTAK1DN) (other)
chain: MELRQLSRVNHPNIVKLYGACLNPVCLVMEYAEGGSLYNVLHGAEPLPYYTAAHAMSWCLQCSQGVAYLHSMQPKALIHRDLKPPNLLLVAGGTVLKICDFGTACDIQTHMTNNKGSAAWMAPEVFEGSNYSEKCDVFSWGIILWEVITRRKPFDEIGGPAFRIMWAVHNGTRPPLIKNLPKPIESLMTRCWSKDPSQRPSMEEIVKIMTHLMRYFPGADEPLQYPCQ
[5]
  fold increase of fibronectin in the culture supernatant on TGF-β addition, HT/DN2 cells (control HT/NEO about 6.1 fold): ~2.6 fold
  fold increase of fibronectin in the culture supernatant on TGF-β addition, HT/DN14 cells (control HT/NEO about 6.1 fold): ~3 fold
  fold increase of fibronectin in the extracellular matrix extract on TGF-β addition, HT/DN2 cells (control HT/NEO about 11.4 fold): ~3.5 fold
  fold increase of fibronectin in the extracellular matrix extract on TGF-β addition, HT/DN14 cells (control HT/NEO about 11.4 fold): ~3.6 fold
[6]
  fold increase of fibronectin in the culture supernatant on TGF-β addition, MES/DN3 cells (control MES/NEO about 3.3 fold): ~2.4 fold
  fold increase of fibronectin in the culture supernatant on TGF-β addition, MES/DN6 cells (control MES/NEO about 3.3 fold): ~2.3 fold
  fold increase of fibronectin in the extracellular matrix extract on TGF-β addition, MES/DN3 cells (control MES/NEO about 3.8 fold): ~2.6 fold
  fold increase of fibronectin in the extracellular matrix extract on TGF-β addition, MES/DN6 cells (control MES/NEO about 3.8 fold): ~2.1 fold
  fold increase of type I collagen in the culture supernatant on TGF-β addition, MES/DN3 cells (control MES/NEO about 3.6 fold): ~2 fold
  fold increase of type I collagen in the culture supernatant on TGF-β addition, MES/DN6 cells (control MES/NEO about 3.6 fold): ~2 fold
  fold increase of type IV collagen in the culture supernatant on TGF-β addition, MES/DN3 cells (control MES/NEO about 2.0 fold): ~1.5 fold
  fold increase of type IV collagen in the culture supernatant on TGF-β addition, MES/DN6 cells (control MES/NEO about 2.0 fold): ~1.4 fold
[7]
  fold increase of PAI-1 in the culture supernatant on TGF-β1 addition, Mv/DN2 cells (control cells about 16-fold): ~4.3 fold

Reference: patent US20030162228A1 (Chugai, published 2003)
